Legend:
Assay in all cases: EMSA; 25 mM Tris pH 8.0, 100 mM KCl, 1.5 mM MgCl2, 0.2 mM EGTA, 0.05% Nonidet P-40, 1 mM DTT, 5% glycerol, 50 ug/ml heparin; 30 C 30 min, then ice 10 min; 1 nM RNA; 6% native PAGE in cold room
[1] = target: YBAP1 (UniProt Q07021 74-282); conditions: protein: recombinant; tags: His6-MBP; chain copies: 3; label: 5'-IRD800CWN
[2] = target: T1, YBX1 (UniProt P67809 1-324); conditions: protein: recombinant; tags: His6-MBP (N-terminal vector tag); label: 5'-IRD800CWN
[3] = target: T1, YBX1; conditions: protein: recombinant; tags: His6-MBP (N-terminal vector tag); label: 5'-IRD800CWN; remark: listed apart in the source
[4] = target: YBX1(F85A) (UniProt P67809 1-324, F85A); conditions: protein: recombinant; tags: His6-MBP; label: 5'-IRD800CWN
[5] = target: T1, YBX1; conditions: protein: recombinant; tags: His6-MBP (N-terminal vector tag); label: 5'-IRD800CWN; remark: listed apart in the source

T1 sequence (P67809 whole entry): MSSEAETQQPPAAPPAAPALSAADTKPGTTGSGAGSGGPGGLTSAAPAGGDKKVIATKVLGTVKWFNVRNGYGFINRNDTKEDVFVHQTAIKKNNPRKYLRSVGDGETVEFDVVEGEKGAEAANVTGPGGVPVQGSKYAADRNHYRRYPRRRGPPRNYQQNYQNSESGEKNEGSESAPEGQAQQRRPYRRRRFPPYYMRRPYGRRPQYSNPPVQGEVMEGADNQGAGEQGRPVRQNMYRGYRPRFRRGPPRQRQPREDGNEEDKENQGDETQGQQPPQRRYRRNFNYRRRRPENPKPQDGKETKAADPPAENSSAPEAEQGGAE
Sequence of YBAP1 (Q07021 74-282): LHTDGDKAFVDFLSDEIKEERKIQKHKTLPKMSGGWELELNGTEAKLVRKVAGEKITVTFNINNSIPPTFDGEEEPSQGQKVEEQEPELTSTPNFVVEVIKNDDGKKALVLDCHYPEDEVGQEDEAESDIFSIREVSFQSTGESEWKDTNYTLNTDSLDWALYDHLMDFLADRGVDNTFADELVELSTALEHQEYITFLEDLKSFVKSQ
Sequence of YBX1(F85A) (P67809 whole entry F85A): as the sequence (P67809 whole entry) above, with F85A counted along it

Question: Does UGAUAUGUUUGAUAUAUUAGGU (ssRNA) [miR190 (hsa-miR-190-5p)] bind [1]?
Answer: no binding

Question: What about the binding signal [2] of the same binder?
Answer: ~140 fold weaker than miR223

Question: Which binding signal [3] does the source give for UGUCAGUUUUGAUAUAUUAGGU (ssRNA) [miR190sort] here?
Answer: ~8 fold stronger than miR190

Question: Does UGUCAGUUUGUCAAAUACCCCA (ssRNA) [miR223 (hsa-miR-223-3p)] bind [1]?
Answer: binds

Question: Does UGUCAGUUUGUCAAAUACCCCA (ssRNA) [miR223 (hsa-miR-223-3p)] bind [4]?
Answer: no binding

Question: And the Kd [5]?
Answer: 4.2 nM

Question: With UGAGACAUUGUCAAAUACCCCA (ssRNA) [miR223mut] as the binder, how does the binding signal [3] read?
Answer: ~27 fold weaker than miR223

— article PMC10403255, “Two RNA-binding proteins mediate the sorting of miR223 from mitochondria into exosomes”
